Laboratory results taken from patent US20230044278A1 (DYNE THERAPEUTICS, published 2023).

T1: recombinant cynomolgus monkey (Macaca fascicularis) transferrin receptor 1 (cynomolgus monkey (Macaca fascicularis), UniProt Q5RDH6 87-760 (Pongo abelii entry), limits assumed)
T1 construct: also called cTfR1; cyno TfR1
T1 chain: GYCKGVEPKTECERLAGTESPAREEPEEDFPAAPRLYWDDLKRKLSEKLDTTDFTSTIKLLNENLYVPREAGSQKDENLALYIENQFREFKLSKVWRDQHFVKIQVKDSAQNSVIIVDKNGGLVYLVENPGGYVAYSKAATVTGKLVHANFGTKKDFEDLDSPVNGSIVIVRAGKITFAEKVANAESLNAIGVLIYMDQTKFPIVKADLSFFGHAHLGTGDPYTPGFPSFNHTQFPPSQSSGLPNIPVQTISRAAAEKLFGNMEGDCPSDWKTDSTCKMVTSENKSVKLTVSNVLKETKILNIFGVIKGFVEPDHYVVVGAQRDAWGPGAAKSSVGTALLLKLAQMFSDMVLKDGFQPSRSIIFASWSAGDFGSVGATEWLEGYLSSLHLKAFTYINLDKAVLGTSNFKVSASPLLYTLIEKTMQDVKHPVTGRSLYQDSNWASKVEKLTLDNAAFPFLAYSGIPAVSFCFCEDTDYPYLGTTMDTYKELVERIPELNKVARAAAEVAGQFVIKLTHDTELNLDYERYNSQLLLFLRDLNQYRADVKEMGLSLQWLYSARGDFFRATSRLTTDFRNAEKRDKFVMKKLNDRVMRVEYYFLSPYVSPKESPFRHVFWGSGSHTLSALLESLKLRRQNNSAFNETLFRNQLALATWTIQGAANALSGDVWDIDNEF


Tests used:
[1] = target: T2, recombinant human transferrin receptor 1 (human, UniProt P02786 89-760); assay: ELISA, thermal stability d9 (after 9 days at high temperature); printed as 'Binding affinity hTfR1 d9 (nM)'
T2 construct: also called hTfR1; huTfR1
T2 sequence (P02786 89-760 limits assumed): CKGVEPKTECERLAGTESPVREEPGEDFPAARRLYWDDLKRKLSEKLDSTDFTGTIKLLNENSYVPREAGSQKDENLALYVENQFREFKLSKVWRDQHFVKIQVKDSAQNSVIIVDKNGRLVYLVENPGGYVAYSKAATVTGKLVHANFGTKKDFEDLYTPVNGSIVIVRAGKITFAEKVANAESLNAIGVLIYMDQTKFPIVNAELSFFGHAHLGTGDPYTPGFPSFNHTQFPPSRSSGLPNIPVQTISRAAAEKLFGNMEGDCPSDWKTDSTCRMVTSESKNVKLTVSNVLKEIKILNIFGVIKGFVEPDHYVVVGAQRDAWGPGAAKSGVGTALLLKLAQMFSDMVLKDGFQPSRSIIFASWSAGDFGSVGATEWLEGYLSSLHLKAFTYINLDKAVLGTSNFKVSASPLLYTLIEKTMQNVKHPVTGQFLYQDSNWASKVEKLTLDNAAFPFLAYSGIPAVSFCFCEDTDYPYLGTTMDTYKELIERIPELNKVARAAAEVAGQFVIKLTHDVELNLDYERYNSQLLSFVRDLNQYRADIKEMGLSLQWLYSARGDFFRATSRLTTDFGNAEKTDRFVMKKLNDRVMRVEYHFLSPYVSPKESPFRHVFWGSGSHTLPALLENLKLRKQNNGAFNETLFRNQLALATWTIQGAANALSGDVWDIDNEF
Experimental: (§1) To measure binding of humanized anti-TfR antibodies to TfR1, ELISAs were conducted. High binding, black, flat bottom, 96 well plates (Corning #3925) were first coated with 100 μL/well of recombinant huTfR1 at […] in PBS and incubated at 4° C. overnight. Wells were emptied and residual liquid was removed. Blocking was conducted by adding 200 μL of 1% BSA (w/w) in PBS to each well. Blocking was allowed to proceed for 2 hours at room temperature on a shaker at 300 rpm. After blocking, liquid was removed and wells were washed three times with 300 μL of TBST. Anti-TfR1 antibodies were then added in 0.5% BSA/TBST in triplicate in an 8 point serial dilution (dilution range 5 μg/mL-5 ng/mL). A positive control and isotype controls were also included on the ELISA plate. The plate was incubated at room temperature on an orbital shaker for 60 minutes at 300 rpm, and the plate was washed three times with 300 μL of TBST. Anti-(H+L)IgG-A488 (1:500) (Invitrogen #A11013) was diluted in 0.5% BSA in TBST, and 100 μL was added to each well. The plate was then allowed to incubate at room temperature for 60 minutes at 300 rpm on orbital shaker. The liquid was removed and the plate was washed four times with 300 μL of TBST. Absorbance was then measured at 495 nm excitation and […] (with a 15 nm bandwidth) on a plate reader. Data was recorded and analyzed for EC₅₀. […] ELISA measurements were conducted using cynomolgus monkey (Macaca fascicularis) TfR1 (cTfR1) according to the same protocol described above for hTfR1, and results are shown in FIGS. 1B, 1D, and 1F.

[2] = target: T1, recombinant cynomolgus monkey (Macaca …); assay: ELISA, thermal stability d9 (after 9 days at high temperature); printed as 'Binding affinity cyno TfR1 d9 (nM)'
Experimental: The selected Fabs were analyzed for their properties binding to TfR1 by kinetic analysis. For conjugates shown in Table 8 and Table 9, the selected humanized Fabs were conjugated to a DMPK-targeting oligonucleotide ASO300.
as §1

[3] = target: T2, recombinant human transferrin receptor 1; assay: ELISA, Fab-ASO300 conjugate; printed as 'DMPK oligo conjugate binding to hTfR1 (nM)'
[4] = target: T1, recombinant cynomolgus monkey (Macaca …); assay: ELISA, Fab-ASO300 conjugate; printed as 'DMPK oligo conjugate binding to cyno TfR1 (nM)'

Row | Binder | EC50 [1] [nM] | EC50 [2] [nM] | EC50 [3] [nM] | EC50 [4] [nM]
1 | humanized anti-TfR Fab 5H12 (VH5-C33Y/Vk4) (Fab, V domains shown, unconjugated; also called 5H12 VH5 (C33Y*)/Vκ4) VH: QVQLVQSGAEVKKPGASVKVSCKASGYSFTDYYINWVRQAPGQGLEWMGWIYPGSGNTRYSERFKGRVTITRDTSASTAYMELSSLRSEDTAVYYCAREDYYPYHGMDYWGQGTLVTVSS VL: DIVMTQSPDSLAVSLGERATINCRASESVDGYDNSFMHWYQQKPGQPPKLLIFRASNLESGVPDRFSGSGSGTDFTLTISSLQAEDVAVYYCQQSSEDPWTFGQGTKLEIKR | 1730 | 0.26 | – | –
2 | humanized anti-TfR Fab 5H12 (VH5-C33Y/Vk3) (Fab, V domains shown, unconjugated; also called 5H12 VH5 (C33Y*)/Vκ3) VH: QVQLVQSGAEVKKPGASVKVSCKASGYSFTDYYINWVRQAPGQGLEWMGWIYPGSGNTRYSERFKGRVTITRDTSASTAYMELSSLRSEDTAVYYCAREDYYPYHGMDYWGQGTLVTVSS VL: DIVLTQSPDSLAVSLGERATINCRASESVDGYDNSFMHWYQQKPGQPPKLLIFRASNLESGVPDRFSGSGSRTDFTLTISSLQAEDVAVYYCQQSSEDPWTFGQGTKLEIKR | 71.9 | 0.69 | – | –
3 | humanized anti-TfR Fab 5H12 (VH5-C33D/Vk4) (Fab, V domains shown, unconjugated; also called 5H12 VH5 (C33D*)/Vκ4) VH: QVQLVQSGAEVKKPGASVKVSCKASGYSFTDYDINWVRQAPGQGLEWMGWIYPGSGNTRYSERFKGRVTITRDTSASTAYMELSSLRSEDTAVYYCAREDYYPYHGMDYWGQGTLVTVSS VL: DIVMTQSPDSLAVSLGERATINCRASESVDGYDNSFMHWYQQKPGQPPKLLIFRASNLESGVPDRFSGSGSGTDFTLTISSLQAEDVAVYYCQQSSEDPWTFGQGTKLEIKR | 92.3 | 0.63 | – | –
4 | humanized anti-TfR Fab 3A4 (VH3-N54T/Vk4) (Fab, V domains shown, unconjugated; also called 3A4 VH3 (N54T*)/Vκ4) VH: EVQLVQSGSELKKPGASVKVSCTASGFNIKDDYMYWVRQPPGKGLEWIGWIDPETGDTEYASKFQDRVTVTADTSTNTAYMELSSLRSEDTAVYYCTLWLRRGLDYWGQGTLVTVSS VL: DIVMTQSPLSLPVTPGEPASISCRSSKSLLHSNGYTYLFWFQQRPGQSPRLLIYRMSNLASGVPDRFSGSGSGTDFTLKISRVEAEDVGVYYCMQHLEYPFTFGGGTKVEIKR | 0.4 | 128 | – | –
5 | 3A4 (VH3-N54T/Vk4) Fab conjugated to DMPK-targeting oligonucleotide ASO300 (Fab, V domains shown, ASO300 oligonucleotide covalently conjugated via linker of Formula (C); residue and chain not stated, also called 3A4 (VH3-N54T/Vk4) conjugate; DMPK oligo conjugate) VH: EVQLVQSGSELKKPGASVKVSCTASGFNIKDDYMYWVRQPPGKGLEWIGWIDPETGDTEYASKFQDRVTVTADTSTNTAYMELSSLRSEDTAVYYCTLWLRRGLDYWGQGTLVTVSS VL: DIVMTQSPLSLPVTPGEPASISCRSSKSLLHSNGYTYLFWFQQRPGQSPRLLIYRMSNLASGVPDRFSGSGSGTDFTLKISRVEAEDVGVYYCMQHLEYPFTFGGGTKVEIKR | – | – | 2.22 | 5.12
6 | humanized anti-TfR Fab 3A4 (VH3-N54S/Vk4) (Fab, V domains shown, unconjugated; also called 3A4 VH3 (N54S*)/Vκ4) VH: EVQLVQSGSELKKPGASVKVSCTASGFNIKDDYMYWVRQPPGKGLEWIGWIDPESGDTEYASKFQDRVTVTADTSTNTAYMELSSLRSEDTAVYYCTLWLRRGLDYWGQGTLVTVSS VL: DIVMTQSPLSLPVTPGEPASISCRSSKSLLHSNGYTYLFWFQQRPGQSPRLLIYRMSNLASGVPDRFSGSGSGTDFTLKISRVEAEDVGVYYCMQHLEYPFTFGGGTKVEIKR | 0.65 | 248 | – | –
7 | 3A4 (VH3-N54S/Vk4) Fab conjugated to DMPK-targeting oligonucleotide ASO300 (Fab, V domains shown, ASO300 oligonucleotide covalently conjugated via linker of Formula (C); residue and chain not stated, also called 3A4 (VH3-N54S/Vk4) conjugate; DMPK oligo conjugate) VH: EVQLVQSGSELKKPGASVKVSCTASGFNIKDDYMYWVRQPPGKGLEWIGWIDPESGDTEYASKFQDRVTVTADTSTNTAYMELSSLRSEDTAVYYCTLWLRRGLDYWGQGTLVTVSS VL: DIVMTQSPLSLPVTPGEPASISCRSSKSLLHSNGYTYLFWFQQRPGQSPRLLIYRMSNLASGVPDRFSGSGSGTDFTLKISRVEAEDVGVYYCMQHLEYPFTFGGGTKVEIKR | – | – | 2.71 | 4.1
8 | humanized anti-TfR Fab 3A4 (VH3/Vk4) (Fab, V domains shown, unconjugated; also called 3A4 VH3 /Vκ4) VH: EVQLVQSGSELKKPGASVKVSCTASGFNIKDDYMYWVRQPPGKGLEWIGWIDPENGDTEYASKFQDRVTVTADTSTNTAYMELSSLRSEDTAVYYCTLWLRRGLDYWGQGTLVTVSS VL: DIVMTQSPLSLPVTPGEPASISCRSSKSLLHSNGYTYLFWFQQRPGQSPRLLIYRMSNLASGVPDRFSGSGSGTDFTLKISRVEAEDVGVYYCMQHLEYPFTFGGGTKVEIKR | 0.46 | 878 | – | –
9 | humanized anti-TfR Fab 3M12 (VH3/Vk2) (Fab, V domains shown, unconjugated; also called 3M12 VH3/Vκ2) VH: QVQLQESGPGLVKPSQTLSLTCSVTGYSITSGYYWNWIRQPPGKGLEWMGYITFDGANNYNPSLKNRVSISRDTSKNQFSLKLSSVTAEDTATYYCTRSSYDYDVLDYWGQGTTVTVSS VL: DIQMTQSPSSLSASVGDRVTITCRASQDISNFLNWYQQKPGQPVKLLIYYTSRLHSGVPSRFSGSGSGTDFTLTISSLQPEDFATYFCQQGHTLPYTFGQGTKLEIKR | 0.98 | 19.5 | – | –
10 | 3M12 (VH3/Vk2) Fab conjugated to DMPK-targeting oligonucleotide ASO300 (Fab, V domains shown, ASO300 oligonucleotide covalently conjugated via linker of Formula (C); residue and chain not stated, also called 3M12 (VH3/Vk2) conjugate; DMPK oligo conjugate) VH: QVQLQESGPGLVKPSQTLSLTCSVTGYSITSGYYWNWIRQPPGKGLEWMGYITFDGANNYNPSLKNRVSISRDTSKNQFSLKLSSVTAEDTATYYCTRSSYDYDVLDYWGQGTTVTVSS VL: DIQMTQSPSSLSASVGDRVTITCRASQDISNFLNWYQQKPGQPVKLLIYYTSRLHSGVPSRFSGSGSGTDFTLTISSLQPEDFATYFCQQGHTLPYTFGQGTKLEIKR | – | – | 1.14 | 2.26
11 | humanized anti-TfR Fab 3M12 (VH4/Vk2) (Fab, V domains shown, unconjugated; also called 3M12 VH4/Vκ2) VH: QVQLQESGPGLVKPSQTLSLTCTVTGYSITSGYYWNWIRQPPGKGLEWIGYITFDGANNYNPSLKNRVSISRDTSKNQFSLKLSSVTAEDTATYYCTRSSYDYDVLDYWGQGTTVTVSS VL: DIQMTQSPSSLSASVGDRVTITCRASQDISNFLNWYQQKPGQPVKLLIYYTSRLHSGVPSRFSGSGSGTDFTLTISSLQPEDFATYFCQQGHTLPYTFGQGTKLEIKR | 0.5 | 5.01 | – | –
12 | 3M12 (VH4/Vk3) Fab conjugated to DMPK-targeting oligonucleotide ASO300 (Fab, V domains shown, ASO300 oligonucleotide covalently conjugated via linker of Formula (C); residue and chain not stated, also called 3M12 (VH4/Vk3) conjugate; DMPK oligo conjugate) VH: QVQLQESGPGLVKPSQTLSLTCTVTGYSITSGYYWNWIRQPPGKGLEWIGYITFDGANNYNPSLKNRVSISRDTSKNQFSLKLSSVTAEDTATYYCTRSSYDYDVLDYWGQGTTVTVSS VL: DIQMTQSPSSLSASVGDRVTITCRASQDISNFLNWYQQKPGQPVKLLIYYTSRLHSGVPSRFSGSGSGTDFTLTISSLQPEDFATYYCQQGHTLPYTFGQGTKLEIKR | – | – | 1.18 | 1.85
13 | humanized anti-TfR Fab 3M12 (VH3/Vk3) (Fab, V domains shown, unconjugated; also called 3M12 VH3/Vκ3) VH: QVQLQESGPGLVKPSQTLSLTCSVTGYSITSGYYWNWIRQPPGKGLEWMGYITFDGANNYNPSLKNRVSISRDTSKNQFSLKLSSVTAEDTATYYCTRSSYDYDVLDYWGQGTTVTVSS VL: DIQMTQSPSSLSASVGDRVTITCRASQDISNFLNWYQQKPGQPVKLLIYYTSRLHSGVPSRFSGSGSGTDFTLTISSLQPEDFATYYCQQGHTLPYTFGQGTKLEIKR | 1.49 | 15.6 | – | –
14 | humanized anti-TfR Fab 3M12 (VH4/Vk3) (Fab, V domains shown, unconjugated; also called 3M12 VH4/Vκ3) VH: QVQLQESGPGLVKPSQTLSLTCTVTGYSITSGYYWNWIRQPPGKGLEWIGYITFDGANNYNPSLKNRVSISRDTSKNQFSLKLSSVTAEDTATYYCTRSSYDYDVLDYWGQGTTVTVSS VL: DIQMTQSPSSLSASVGDRVTITCRASQDISNFLNWYQQKPGQPVKLLIYYTSRLHSGVPSRFSGSGSGTDFTLTISSLQPEDFATYYCQQGHTLPYTFGQGTKLEIKR | 0.28 | 16.4 | – | –
